Blank lines part the entries; values can stand above or below the molecule they belong to.
B1: Hda2 (natural protein)
chain: MSRKNSKKLKVYYLPVTLTQFQKDLSEILISLHAKSFKASIIGEPQADAVNKPSGLPAGPETHPYPTLSQRQLTYIFDSNIRAIANHPSLLVDHYMPRQLLRMEPTESSIAGSHKFQVLNQLINSICFRDREGSPNEVIKCAIIAHSIKELDLLEGLILGKKFRTKRLSGTSLYNEKHKFPNLPTVDSTINKDGTPNSVSSTSSNSNSTSYTGYSKDDYDYSVKRNLKKRKINTDDWLFLATTKHLKHDQYLLANYDIDMIISFDPMLEVELPALQVLRNNANKDIPIIKLLVQNSPDHYLLDSEIKNSSVKSSHLSNNGHVDDSQEYEEIKSSLLYFLQARNAPVNNCEIDYIKLVKCCLEGKDCNNILPVLDLITLDEASKDSSDSGFWQPQLTKLQYSSTELPLWDGPLDIKTYQTELMHRAVIRLRDIQDEYAKGTVPLYEKRLNETQRQNQLDEIKNSVGLTFKKKQEVEKSINDSEKRLKHAMTESTKLQNKINHLLKNRQELENFNKLPSNTISSENHLEEGSALADKLKEYIDKNATLFNKLKELQQANAEKSKLNDELRSKYQIESSKAAESAQTLKILQESMKSLENEVNGPLTKFSTESLKKELERLQNDFQSLKARNKFLKNYITLMNRQYDLKNKNNVQVEKAAANGTRFRSTRSNTPNYT
B2: Hda1 (enzyme)
chain: MDSVMVKKEVLENPDHDLKRKLEENKEEENSLSTTSKSKRQVIVPVCMPKIHYSPLKTGLCYDVRMRYHAKIFTSYFEYIDPHPEDPRRIYRIYKILAENGLINDPTLSGVDDLGDLMLKIPVRAATSEEILEVHTKEHLEFIESTEKMSREELLKETEKGDSVYFNNDSYASARLPCGGAIEACKAVVEGRVKNSLAVVRPPGHHAEPQAAGGFCLFSNVAVAAKNILKNYPESVRRIMILDWDIHHGNGTQKSFYQDDQVLYVSLHRFEMGKYYPGTIQGQYDQTGEGKGEGFNCNITWPVGGVGDAEYMWAFEQVVMPMGREFKPDLVIISSGFDAADGDTIGQCHVTPSCYGHMTHMLKSLARGNLCVVLEGGYNLDAIARSALSVAKVLIGEPPDELPDPLSDPKPEVIEMIDKVIRLQSKYWNCFRRRHANSGCNFNEPINDSIISKNFPLQKAIRQQQQHYLSDEFNFVTLPLVSMDLPDNTVLCTPNISESNTIIIVVHDTSDIWAKRNVISGTIDLSSSVIIDNSLDFIKWGLDRKYGIIDVNIPLTLFEPDNYSGMITSQEVLIYLWDNYIKYFPSVAKIAFIGIGDSYSGIVHLLGHRDTRAVTKTVINFLGDKQLKPLVPLVDETLSEWYFKNSLIFSNNSHQCWKENESRKPRKKFGRVLRCDTDGLNNIIEERFEEATDFILDSFEEWSDEE
B3: Hda3 (natural protein)
chain: MDLLRILDTKPIPTIVDATTLGISGNTSGDYWLPTTMSLYQKELTDQIVSLHYSDILRYFETSHYKEDVILESMKTMCLNGSLVATHPYLLIDHYMPKSLITRDVPAHLAENSGKFSVLRDLINLVQEYETETAIVCRPGRTMDLLEALLLGNKVHIKRYDGHSIKSKQKANDFSCTVHLFSSEGINFTKYPIKSKARFDMLICLDTTVDTSQKDIQYLLQYKRERKGLERYAPIVRLVAINSIDHCRLFFGKKFDKNSREYLENVTAAMVILRDRLGTLPPDLRPIYSQKLHYLVEWLENPTVPWPLPDIYPLKQYTSMDVERSLLTEVHFKKSDDQLEDAFSNCSKKRGRHGANKAASSTVAGIEDNITPSFYSTKRLKNDYYTNPLKQDMTQLTGITTADNSSNVNYHLSSGIITHKLIQSMGEVYMDICVQKQELDDYSCLDDLQNDHLKFFSNEDEKIIKEYETVLRTNNENLNRSHELEVENNLKFSQIETLEKDIETLKGSLMAQGETLSKLKDAFVKTDNVQDEIEKEERVSVSRDTEKKYMEQEIKRAVDAIRENEEETHKLNEKQNGLESELKLKFEKSEISTKELNEKIGFLKKELKLENDLNEELVGQLSKTMDNLENLTIPRVRTQNGNTKKKSRAKKPGNV

Experiments:
[1] = target: HDAC protomer complex (Hda1_(2)-Hda2-Hda3 heterotetrameric complex) (S. cerevisiae) (UniProt P53973); assay: cryo-EM structure
Hda1 [2] = target: B2; assay: SEC-MALS
SEC-MALS = target: the molecule itself; assay: SEC-MALS
Hda1 [3] = target: B2; assay: cryo-EM structure
Hda2 = target: B1; assay: cryo-EM structure

stoichiometry N [1]: 2
Molecule: HDAC protomer complex (Hda1_(2)-Hda2-Hda3 heterotetrameric complex) (from UniProt P53973;Q06629;Q06623)

Molecule: B1
binding result (Hda1 [2]): binds

Molecule: B2
stoichiometry N (SEC-MALS): 2

Molecule: B3
binding result (Hda1 [3]): binds
binding result (Hda2): binds
